Holding throughout (conditions): both partners purified
The target in assay [1] is T1, CRL2^FEM1B complex with FEM1B^F549R, unneddylated (human, UniProt Q13617 1-745; P62877 1-108; Q15370 1-104; Q15369 17-112; Q9UK73 1-627, F549R).
T1 construct: Cullin-2 (CUL2), human; primers from the start codon to the last codon; RING-box protein 1 (RBX1), human; primers from the start codon to the stop codon; Elongin-B (ELOB), human, residues 1-104; Elongin-C (ELOC), human, residues 17-112; Protein fem-1 homolog B (FEM1B), human, F549R; also called CRL2FEM1B-F549R; source: CUL2/RBX1 from SF9 insect cells and mutant FEM1B/ELOB/ELOC from E. coli …
Kind of assay: grating-coupled interferometry; Creoptix WAVE; MBP-BEX2 and FNIP1/FLCN amine-coupled to 4PCP chips; CRL2^FEM1B injected in a 1:3 dilution series from 1 μM in 10 mM HEPES pH 7.5, 150 mM NaCl, 50 μM ZnCl2, 25 °C; 1:1 kinetics model.

The target of assay [2] is T2, CRL2^FEM1B complex with FEM1B^F549T, unneddylated (human, UniProt Q13617 1-745; P62877 1-108; Q15370 1-104; Q15369 17-112; Q9UK73 1-627, F549T).
T2 construct: Cullin-2 (CUL2), human; primers from the start codon to the last codon; RING-box protein 1 (RBX1), human; primers from the start codon to the stop codon; Elongin-B (ELOB), human, residues 1-104; Elongin-C (ELOC), human, residues 17-112; Protein fem-1 homolog B (FEM1B), human, F549T; also called CRL2FEM1B-F549T; source: CUL2/RBX1 from SF9 insect cells and mutant FEM1B/ELOB/ELOC from E. coli …
The description is as above.

Assay [3] deals with T3, CRL2^FEM1B complex with FEM1B^Δ546-553 (FEM1B^DEL), unneddylated (human, UniProt Q13617 1-745; P62877 1-108; Q15370 1-104; Q15369 17-112; Q9UK73 1-627, Δ546-553).
T3 construct: Cullin-2 (CUL2), human; primers from the start codon to the last codon; RING-box protein 1 (RBX1), human; primers from the start codon to the stop codon; Elongin-B (ELOB), human, residues 1-104; Elongin-C (ELOC), human, residues 17-112; Protein fem-1 homolog B (FEM1B), human, with residues 546-553 deleted; also called CRL2FEM1B-DEL; source: CUL2/RBX1 from SF9 insect cells and mutant …
Described as above.

For assay [4], the target named is T4, CRL2^FEM1B complex with FEM1B^Y275R/L278R, unneddylated (human, UniProt Q13617 1-745; P62877 1-108; Q15370 1-104; Q15369 17-112; Q9UK73 1-627, Y275R | L278R).
T4 construct: Cullin-2 (CUL2), human; primers from the start codon to the last codon; RING-box protein 1 (RBX1), human; primers from the start codon to the stop codon; Elongin-B (ELOB), human, residues 1-104; Elongin-C (ELOC), human, residues 17-112; Protein fem-1 homolog B (FEM1B), human, Y275R/L278R; also called CRL2FEM1B-Y275R/L278R; CRL2FEM1B-Y275RL278R; source: CUL2/RBX1 from SF9 insect cells and mutant …
The assay is described as above.

The target in assay [5] is T5, CRL2^FEM1B complex with FEM1B^F549S, unneddylated (human, UniProt Q13617 1-745; P62877 1-108; Q15370 1-104; Q15369 17-112; Q9UK73 1-627, F549S).
T5 construct: Cullin-2 (CUL2), human; primers from the start codon to the last codon; RING-box protein 1 (RBX1), human; primers from the start codon to the stop codon; Elongin-B (ELOB), human, residues 1-104; Elongin-C (ELOC), human, residues 17-112; Protein fem-1 homolog B (FEM1B), human, F549S; also called CRL2FEM1B-F549S; source: CUL2/RBX1 from SF9 insect cells and mutant FEM1B/ELOB/ELOC from E. coli …
The assay is described as above.

For assay [6], the target named is T6, RBX1, as the subunit of CRL2^FEM1B (human, UniProt P62877 1-108).
T6 construct: RING-box protein 1 (RBX1), human; primers RBX1-f/RBX1-r run from the start codon to the stop codon; Seen as a subunit of the complexes m1 and m7 in the cryo-EM structures; source: SF9 insect cells, co-expressed with CUL2, purified; within the reconstituted CRL2^FEM1B complex
T6 sequence (P62877 whole entry): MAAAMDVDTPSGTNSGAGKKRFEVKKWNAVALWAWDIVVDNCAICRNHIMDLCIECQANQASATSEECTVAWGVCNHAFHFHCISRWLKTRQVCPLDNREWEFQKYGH
The assay can be described thus: cryo-EM structure; neddylated CRL2^FEM1B and FNIP1-FLCN mixed 1:1.2, 1 h at 4 °C, GraFix, 1.38 mg/ml.

The Kd is the concentration at which binding is half-saturated. High values mean a looser complex, low ones a tighter complex.

B1: FNIP1/FLCN complex (complex, human)
chain 1: MAPTLFQKLFSKRTGLGAPGRDARDPDCGFSWPLPEFDPSQIRLIVYQDCERRGRNVLFDSSVKRRNEDISVSKLGSDAQVKVFGKCCQLKPGGDSSSSLDSSVTSSSDIKDQCLKYQGSRCSSDANMLGEMMFGSVAMSYKGSTLKIHQIRSPPQLMLSKVFTARTGSSICGSLNTLQDSLEFINQDNNTLKADNNTVINGLLGNIGLSQFCSPRRAFSEQGPLRLIRSASFFAVHSNPMDMPGRELNEDRDSGIARSASLSSLLITPFPSPNSSLTRSCASSYQRRWRRSQTTSLENGVFPRWSIEESFNLSDESCGPNPGIVRKKKIAIGVIFSLSKDEDENNKFNEFFFSHFPLFESHMNKLKSAIEQAMKMSRRSADASQRSLAYNRIVDALNEFRTTICNLYTMPRIGEPVWLTMMSGTPEKNHLCYRFMKEFTFLMENASKNQFLPALITAVLTNHLAWVPTVMPNGQPPIKIFLEKHSSQSVDMLAKTHPYNPLWAQLGDLYGAIGSPVRLARTVVVGKRQDMVQRLLYFLTYFIRCSELQETHLLENGEDEAIVMPGTVITTTLEKGEIEESEYVLVTMHRNKSSLLFKESEEIRTPNCNCKYCSHPLLGQNVENISQQEREDIQNSSKELLGISDECQMISPSDCQEENAVDVKQYRDKLRTCFDAKLETVVCTGSVPVDKCALSESGLESTEETWQSEKLLDSDSHTGKAMRSTGMVVEKKPPDKIVPASFSCEAAQTKVTFLIGDSMSPDSDTELRSQAVVDQITRHHTKPLKEERGAIDQHQETKQTTKDQSGESDTQNMVSEEPCELPCWNHSDPESMSLFDEYFNDDSIETRTIDDVPFKTSTDSKDHCCMLEFSKILCTKNNKQNNEFCKCIETVPQDSCKTCFPQQDQRDTLSILVPHGDKESSDKKIAVGTEWDIPRNESSDSALGDSESEDTGHDMTRQVSSYYGGEQEDWAEEDEIPFPGSKLIEVSAVQPNIANFGRSLLGGYCSSYVPDFVLQGIGSDERFRQCLMSDLSHAVQHPVLDEPIAEAVCIIADMDKWTVQVASSQRRVTDNKLGKEVLVSSLVSNLLHSTLQLYKHNLSPNFCVMHLEDRLQELYFKSKMLSEYLRGQMRVHVKELGVVLGIESSDLPLLAAVASTHSPYVAQILL
chain 2: MNAIVALCHFCELHGPRTLFCTEVLHAPLPQGDGNEDSPGQGEQAEEEEGGIQMNSRMRAHSPAEGASVESSSPGPKKSDMCEGCRSLAAGHPGYISHDKETSIKYVSHQHPSHPQLFSIVRQACVRSLSCEVCPGREGPIFFGDEQHGFVFSHTFFIKDSLARGFQRWYSIITIMMDRIYLINSWPFLLGKVRGIIDELQGKALKVFEAEQFGCPQRAQRMNTAFTPFLHQRNGNAARSLTSLTSDDNLWACLHTSFAWLLKACGSRLTEKLLEGAPTEDTLVQMEKLADLEEESESWDNSEAEEEEKAPVLPESTEGRELTQGPAESSSLSGCGSWQPRKLPVFKSLRHMRQVLGAPSFRMLAWHVLMGNQVIWKSRDVDLVQSAFEVLRTMLPVGCVRIIPYSSQYEEAYRCNFLGLSPHVQIPPHVLSSEFAVIVEVHAAARSTLHPVGCEDDQSLSKYEFVVTSGSPVAADRVGPTILNKIEAALTNQNLSVDVVDQCLVCLKEEWMNKVKVLFKFTKVDSRPKEDTQKLLSILGASEEDNVKLLKFWMTGLSKTYKSHLMSTVRSPTASESRN
notes: Folliculin (FLCN), human; Calculated mass of the heterodimer printed as 195.8 kDa; also called FNIP1/FLCN heterodimer; source: HEK293F, BacMam baculovirus, purified (Ni-NTA, Strep Trap, TEV, Superose 6); not shown: mCherry, C-terminal, cleaved; His6, C-terminal, cleaved; 2x Strep-tag, C-terminal, cleaved
For B1, the Kd in assay [1] amounted to 8.99 nM; in assay [2], 33.3 nM; in assay [3], 4.72 nM; in assay [4], 3.13 nM; in assay [5], 17.5 nM. Also, the binding result in assay [6] is reported as “binds”.

B2: MBP-BEX2 (natural protein)
chain: MESKEERALNNLIVENVNQENDEKDEKEQVANKGEPLALPLNVSEYCVPRGNRRRFRVRQPILQYRWDIMHRLGEPQARMREENMERIGEEVRQLMEKLREKQLSHSLRAVSTDPPHHDHHDEFCLMP
notes: Protein BEX2, human; source: E. coli BL21(DE3), purified (Ni-NTA, Superdex 200); not shown: MBP, N-terminal, kept
Regarding B2, the Kd in assay [1] was determined as 14 nM; in assay [2], 109 nM; in assay [3], 6.62 nM; in assay [4], 3.99 nM; in assay [5], 23 nM.

Values taken from paper PMC10943247 (The EMBO Journal, 2024).
